Test results taken from patent US20230103631A1, “PEPTIDES AS SELECTIVE GIP RECEPTOR AGONISTS” (Sanofi, priority 2020, published 2023).
*1 amine or outer side, *2 acyl side, *3 side chain or, on linkers, in order; H or OH if unused. Where no end group is shown, it is not given here. Side-chain parts run from the residue outwards. [ ]: non-standard residue; d: D form. The star is where a group is joined. C18 diacid = O=C(O)CCCCCCCCCCCCCCCCC(=O)*; γGlu = O=C(O)[C@H](CCC(=O)[*:2])N[*:1]; AEEA = NCCOCCOCC(=O)O; Aib = CC(C)(N)C(=O)O; Sar = CNCC(=O)O

T1: human GIP receptor (human, UniProt P48546 22-466)
T1 sequence (looked up): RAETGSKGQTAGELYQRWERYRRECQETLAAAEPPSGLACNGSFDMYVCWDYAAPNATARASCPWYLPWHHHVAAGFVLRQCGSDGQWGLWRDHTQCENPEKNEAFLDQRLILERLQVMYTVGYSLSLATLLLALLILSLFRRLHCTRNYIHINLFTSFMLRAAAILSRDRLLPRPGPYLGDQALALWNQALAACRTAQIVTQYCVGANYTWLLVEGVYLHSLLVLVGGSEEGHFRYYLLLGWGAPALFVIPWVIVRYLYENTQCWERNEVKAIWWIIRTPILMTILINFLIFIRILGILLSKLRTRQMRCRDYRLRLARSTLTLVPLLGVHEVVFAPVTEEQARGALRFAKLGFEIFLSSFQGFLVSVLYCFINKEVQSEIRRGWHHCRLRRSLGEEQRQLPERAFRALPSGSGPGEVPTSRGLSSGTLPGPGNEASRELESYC

B1: SEQ ID NO: 5 (peptide)
peptide: Y[Aib]EGTFISDLSI[Aib]K([Gly-Gly-Gly-γGlu-C18 diacid])DRIHQ[Aib]EFIEWLLAQGPSSGAPPPS-NH2
modifications: N-terminus assumed
SMILES: CC[C@H](C)[C@H](NC(=O)[C@H](CCCNC(=N)N)NC(=O)[C@H](CC(=O)O)NC(=O)[C@H](CCCCNC(=O)CNC(=O)CNC(=O)CNC(=O)CC[C@H](NC(=O)CCCCCCCCCCCCCCCCC(=O)O)C(=O)O)NC(=O)C(C)(C)NC(=O)[C@@H](NC(=O)[C@H](CO)NC(=O)[C@H](CC(C)C)NC(=O)[C@H](CC(=O)O)NC(=O)[C@H](CO)NC(=O)[C@@H](NC(=O)[C@H](Cc1ccccc1)NC(=O)[C@@H](NC(=O)CNC(=O)[C@H](CCC(=O)O)NC(=O)C(C)(C)NC(=O)[C@@H](N)Cc1ccc(O)cc1)[C@@H](C)O)[C@@H](C)CC)[C@@H](C)CC)C(=O)N[C@@H](Cc1c[nH]cn1)C(=O)N[C@@H](CCC(N)=O)C(=O)NC(C)(C)C(=O)N[C@@H](CCC(=O)O)C(=O)N[C@@H](Cc1ccccc1)C(=O)N[C@H](C(=O)N[C@@H](CCC(=O)O)C(=O)N[C@@H](Cc1c[nH]c2ccccc12)C(=O)N[C@@H](CC(C)C)C(=O)N[C@@H](CC(C)C)C(=O)N[C@@H](C)C(=O)N[C@@H](CCC(N)=O)C(=O)NCC(=O)N1CCC[C@H]1C(=O)N[C@@H](CO)C(=O)N[C@@H](CO)C(=O)NCC(=O)N[C@@H](C)C(=O)N1CCC[C@H]1C(=O)N1CCC[C@H]1C(=O)N1CCC[C@H]1C(=O)N[C@@H](CO)C(N)=O)[C@@H](C)CC
notes: Exendin-4 derived synthetic lipidated peptide of formula I
B2: SEQ ID NO: 6 (peptide)
peptide: Y[Aib]EGTFISDLSI[Aib]K([Sar-Sar-Sar-γGlu-C18 diacid])DRIHQ[Aib]EFIEWLLAQGPSSGAPPPS-NH2
modifications: N-terminus assumed
SMILES: CC[C@H](C)[C@H](NC(=O)[C@H](CCCNC(=N)N)NC(=O)[C@H](CC(=O)O)NC(=O)[C@H](CCCCNC(=O)CN(C)C(=O)CN(C)C(=O)CN(C)C(=O)CC[C@H](NC(=O)CCCCCCCCCCCCCCCCC(=O)O)C(=O)O)NC(=O)C(C)(C)NC(=O)[C@@H](NC(=O)[C@H](CO)NC(=O)[C@H](CC(C)C)NC(=O)[C@H](CC(=O)O)NC(=O)[C@H](CO)NC(=O)[C@@H](NC(=O)[C@H](Cc1ccccc1)NC(=O)[C@@H](NC(=O)CNC(=O)[C@H](CCC(=O)O)NC(=O)C(C)(C)NC(=O)[C@@H](N)Cc1ccc(O)cc1)[C@@H](C)O)[C@@H](C)CC)[C@@H](C)CC)C(=O)N[C@@H](Cc1c[nH]cn1)C(=O)N[C@@H](CCC(N)=O)C(=O)NC(C)(C)C(=O)N[C@@H](CCC(=O)O)C(=O)N[C@@H](Cc1ccccc1)C(=O)N[C@H](C(=O)N[C@@H](CCC(=O)O)C(=O)N[C@@H](Cc1c[nH]c2ccccc12)C(=O)N[C@@H](CC(C)C)C(=O)N[C@@H](CC(C)C)C(=O)N[C@@H](C)C(=O)N[C@@H](CCC(N)=O)C(=O)NCC(=O)N1CCC[C@H]1C(=O)N[C@@H](CO)C(=O)N[C@@H](CO)C(=O)NCC(=O)N[C@@H](C)C(=O)N1CCC[C@H]1C(=O)N1CCC[C@H]1C(=O)N1CCC[C@H]1C(=O)N[C@@H](CO)C(N)=O)[C@@H](C)CC
notes: as for B1
B3: SEQ ID NO: 9 (peptide)
peptide: Y[Aib]EGTFISDLSI[Aib]K([AEEA-AEEA-γGlu-C18 diacid])DRIHQEEFIEWLLAQGPSSGAPPPS-NH2
modifications: N-terminus assumed
SMILES: CC[C@H](C)[C@H](NC(=O)[C@H](Cc1ccccc1)NC(=O)[C@H](CCC(=O)O)NC(=O)[C@H](CCC(=O)O)NC(=O)[C@H](CCC(N)=O)NC(=O)[C@H](Cc1c[nH]cn1)NC(=O)[C@@H](NC(=O)[C@H](CCCNC(=N)N)NC(=O)[C@H](CC(=O)O)NC(=O)[C@H](CCCCNC(=O)COCCOCCNC(=O)COCCOCCNC(=O)CC[C@H](NC(=O)CCCCCCCCCCCCCCCCC(=O)O)C(=O)O)NC(=O)C(C)(C)NC(=O)[C@@H](NC(=O)[C@H](CO)NC(=O)[C@H](CC(C)C)NC(=O)[C@H](CC(=O)O)NC(=O)[C@H](CO)NC(=O)[C@@H](NC(=O)[C@H](Cc1ccccc1)NC(=O)[C@@H](NC(=O)CNC(=O)[C@H](CCC(=O)O)NC(=O)C(C)(C)NC(=O)[C@@H](N)Cc1ccc(O)cc1)[C@@H](C)O)[C@@H](C)CC)[C@@H](C)CC)[C@@H](C)CC)C(=O)N[C@@H](CCC(=O)O)C(=O)N[C@@H](Cc1c[nH]c2ccccc12)C(=O)N[C@@H](CC(C)C)C(=O)N[C@@H](CC(C)C)C(=O)N[C@@H](C)C(=O)N[C@@H](CCC(N)=O)C(=O)NCC(=O)N1CCC[C@H]1C(=O)N[C@@H](CO)C(=O)N[C@@H](CO)C(=O)NCC(=O)N[C@@H](C)C(=O)N1CCC[C@H]1C(=O)N1CCC[C@H]1C(=O)N1CCC[C@H]1C(=O)N[C@@H](CO)C(N)=O
notes: as for B1

Columns and labels:
[1] = in vivo; cited from earlier work
[2] = biological target: T2, human GLP-1 receptor (human, UniProt P43220 24-463); assay: displacement of [125I]GLP-1 from hGLP-1R HEK-293 membranes, SPA
T2 construct: whole, on cells; also called hGLP-1R; hGLP-1 receptor

[3] = biological target: T1, human GIP receptor; assay: cell-based or functional assay
[4] = biological target: T1, human GIP receptor; assay: cell-based or functional assay; remark: listed apart in the source
[5] = biological target: T2, human GLP-1 receptor; assay: cell-based or functional assay
[6] = biological target: T1, human GIP receptor; assay: displacement of [125I]GIP from hGIPR HEK-293 membranes, SPA

Molecule	half-life [1] [min]	IC50 [2] [nM]	hGIPR EC50, cAMP in human adipocytes [3] [nM]	hGIPR Emax, cAMP in human adipocytes [3] [%]	EC50 hGIPR 0% HSA, cAMP in HEK-293 cells [4] [nM]	EC50 hGIPR 0.1% HSA, cAMP in HEK-293 cells [4] [nM]	EC50 hGLP-1R 0% HSA, cAMP in HEK-293 cells [5] [nM]	IC50 [6] [nM]
CC[C@H](C)[C@H](NC(=O)[C@H](CO)NC(=O)[C@H](Cc1ccc(O)cc1)NC(=O)[C@H](CC(=O)O)NC(=O)[C@H](CO)NC(=O)[C@@H](NC(=O)[C@H](Cc1ccccc1)NC(=O)[C@@H](NC(=O)CNC(=O)[C@H](CCC(=O)O)NC(=O)[C@H](C)NC(=O)[C@@H](N)Cc1ccc(O)cc1)[C@@H](C)O)[C@@H](C)CC)C(=O)N[C@@H](C)C(=O)N[C@@H](CCSC)C(=O)N[C@@H](CC(=O)O)C(=O)N[C@@H](CCCCN)C(=O)N[C@H](C(=O)N[C@@H](Cc1c[nH]cn1)C(=O)N[C@@H](CCC(N)=O)C(=O)N[C@@H](CCC(N)=O)C(=O)N[C@@H](CC(=O)O)C(=O)N[C@@H](Cc1ccccc1)C(=O)N[C@H](C(=O)N[C@@H](CC(N)=O)C(=O)N[C@@H](Cc1c[nH]c2ccccc12)C(=O)N[C@@H](CC(C)C)C(=O)N[C@@H](CC(C)C)C(=O)N[C@@H](C)C(=O)N[C@@H](CCC(N)=O)C(=O)N[C@@H](CCCCN)C(=O)NCC(=O)N[C@@H](CCCCN)C(=O)N[C@@H](CCCCN)C(=O)N[C@@H](CC(N)=O)C(=O)N[C@@H](CC(=O)O)C(=O)N[C@@H](Cc1c[nH]c2ccccc12)C(=O)N[C@@H](CCCCN)C(=O)N[C@@H](Cc1c[nH]cn1)C(=O)N[C@@H](CC(N)=O)C(=O)N[C@H](C(=O)N[C@H](C(=O)N[C@@H](CCC(N)=O)C(=O)O)[C@@H](C)O)[C@@H](C)CC)C(C)C)[C@@H](C)CC [SEQ ID NO: 1, GIP (glucose-dependent insulinotropic polypeptide)]	2							
B1		145	0.5	137	0.00016	0.00175	> 10	
B2		173	0.3	112	0.00017	0.00105	> 10	
B3		307	1.4	125	0.00019	0.00194	> 10	0.9
